# Test results from patent US20050042205A1 (Genentech, Inc., published 2005).
# B1: human choriogonadotropin, highly purified (CR-123; 12,780 IU/mg) (ligand)
# chain 1: not shown
# chain 2: SKEPLRPRCRPINATLAVEKEGCPVCITVNTTICAGYCPTMTRVLQGVLPALPQVVCNYRDVRFESIRLPGCPRGVNPVVSYAVALSCQCALCRRSTTDCGGPKDHPLTCDDPRFQDSSSSKAPPPSLPSPSRLPGPSDTPILPQ
# Target: rat luteal LH/CG receptor (LH/CG-R) expressed from the cloned cDNA (expression vector pCLHR) in transiently … (rat, UniProt P16235)
# Assay: 125I-CG binding to intact 293 cells transfected with the LH/CG receptor cDNA
binder,measurement,value
B1,Kd,0.08 to 0.16 nM
